This data set in a line: DTPA challenge of Ac-225 labeled TOPA-[C7]-phenylthiourea-h11B6 (iTLC). It counts as physicochemical. The conditions noted are these: for DTPA challenge: chelated Ac-225 (iTLC): labeling reaction mixture, 10 mM DTPA pH 6.5, 37° C., 30 min. The protocol: 0.5 μL of the labeling reaction mixture was also mixed with 10 mM DTPA (pH=6.5, 15 μL) at 37° C. After 30 min, 10 μL of the mixture was spotted on iTLC-SG and developed by 10 mM EDTA. The dried iTLC-SG was left at room temperature for overnight before it was scanned on a Bioscan AR-2000 radio-TLC scanner. Under the elution conditions described herein, TOPA-[C7]-phenylthiourea-h11B6 chelated Ac-225 ^st ayed at the origin and any free Ac-225 would migrate with the solvent to the solvent front.
10 μL of fraction #3 collected after PD-10 column was mixed with 15 μL of 10 mM DTPA solution (pH 6.5), and incubated for 30 min. 10 μL of the mixture was loaded onto an iTLC-SG, which was developed with 10 mM EDTA and dried overnight. It was scanned on a Bioscan AR-2000 radio-TLC scanner.

Setting [1] is: 25 mM NaOAc, 0.04% PS-20, pH 5.5 (conjugate 10.4 mg/mL).
[2] abbreviates: 1.0M NaOAc, 0.04% PS-20 (conjugate 9.36 mg/mL).
Where [3] appears, read: 1.5M NaOAc, 0.04% PS-20 (conjugate 9.36 mg/mL).
Where [4] appears, read: 3M NaOAc buffer (conjugate […]).

For “Ac-225 labeled TOPA-[C7]-phenylthiourea-h11B6 antibody conjugate [Example 21]”, for the setting “fraction #3 after PD-10 column, 10 mM DTPA pH 6.5, 30 min”, the “DTPA challenge of the purified conjugate: free Ac-225 (iTLC)” value is reported as “no free Ac-225”. The “DTPA challenge: chelated Ac-225 (iTLC)” value is, setting by setting: under setting [1], 99.8%; under setting [2], 99.9%; under setting [3], 99.9%; under setting [4], 99.7%.

Turning to “TOPA-[C7]-phenylthiourea-h11B6 Antibody Conjugate [Example 20]”, the “DTPA challenge: chelated Ac-225 (iTLC)” value under setting [1] was greater than 99%, the “DTPA challenge: chelated Ac-225 (iTLC)” value under setting [2] is on record as greater than 99%, the “DTPA challenge: chelated Ac-225 (iTLC)” value under setting [3] is reported as greater than 99% and the “DTPA challenge: chelated Ac-225 (iTLC)” value under setting [4] is recorded as greater than 99%.

The values above are taken from patent publication US20250325718A1, “IMMUNOCONJUGATES COMPRISING KALLIKREIN RELATED PEPTIDASE 2 ANTIGEN BINDING DOMAINS AND THEIR USES” (Janssen Biotech, Inc., priority 2021, published 2025).
